Earlier results on one substance are cited in PMC5689459.

Where only a bound is given, the exact number is not on record here.

The data set deals with delta-opioid receptor (Homo sapiens) (UniProt P41143). The experiment in a line: radioligand.

Morphiceptin, sequence (P02666 whole entry, looked up): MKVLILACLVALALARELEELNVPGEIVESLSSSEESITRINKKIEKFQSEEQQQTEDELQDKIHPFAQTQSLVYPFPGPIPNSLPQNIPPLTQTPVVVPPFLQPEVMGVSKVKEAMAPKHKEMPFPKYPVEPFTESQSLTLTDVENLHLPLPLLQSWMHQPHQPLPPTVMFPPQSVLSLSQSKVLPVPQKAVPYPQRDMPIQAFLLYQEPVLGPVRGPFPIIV

As a reminder, the Ki is the equilibrium dissociation constant of an inhibitor or competing ligand from its target. For Morphiceptin (from UniProt P02666), the Ki was above 10 µM.
